Columns and labels:
[1] = substrate: COc1cc(/C=C/CO)cc(OC)c1O; assay: HPLC of glucoside product, double reciprocal plot; assay type: biochemical, Pyrus x bretschneideri; details: 2.5 mM UDP-glucose, 50 mM MgSO4, 200 mM KCl, 100 mM PBS pH 7.2–7.4, 35 °C, 0.1% β-mercaptoethanol, pH 7.0
Excerpt: (§1) HPLC of glucoside product, double reciprocal plot on PbUGT72AJ2

[2] = substrate: COc1cc(/C=C/CO)ccc1O; assay: HPLC of glucoside product, double reciprocal plot; assay type: biochemical, Pyrus x bretschneideri; details: 2.5 mM UDP-glucose, 50 mM MgSO4, 200 mM KCl, 100 mM PBS pH 7.2–7.4, 35 °C, 0.1% β-mercaptoethanol, pH 7.0
Excerpt: as §1

B1: PbUGT72AJ2 (Pyrus x bretschneideri) (protein)
chain: MSSKPHAAILCSPGLGHLIPSLELAKRLVTHRNFTVTIFAIPSPTSKTESELLKAAATPKFFDIIELPPPDISGCVGPNVAVVTLLAVMMREVRPAFRSAILGMEYSLRPTVLIVDLFSTESLSIGDELGIPKYVYVASTAWLVALTVYVPVFDREMEGEYVDQTEPLRIPGCKPVQPDDVVDPMLDRTDQQYLEYVRIGTNFPKSDGILMNTWEDLEHKTIDALRDEGLLGRVAKVPIYPIGPLTRSVQSAGSTSTGLREEGLFNWLDKQPCESVIFVSLGSGGTVSFEQMTEMAWGLELSKQRFIWVVRPPAKSADAAYFTSGNRDDDPSTYLPKGFLTRTHDVGLVVHLWAPQVDILSHPSIGGFWSHCGWNSSLESITNEVPMIVWPLHAEQRINATMLTEELGVAVRSKVLPLKKVVDREEIKEMVRKIMVDKDGQAIRGRVKELKLSAAKAWSVGGSSYNAISQISSGNQRKC
Km [1]: 144.13 ± 22.31 µM
Vmax [1]: 3.32 µM/min/mg
kcat [1]: 0.44 ± 0.03 s⁻¹
kcat/Km [1]: 3050 ± 250 M⁻¹ s⁻¹
Km [2]: 117.83 ± 7.94 µM
Vmax [2]: 4.23 µM/min/mg
kcat [2]: 0.55 ± 0.02 s⁻¹
kcat/Km [2]: 4670 ± 130 M⁻¹ s⁻¹

Reference: publication PMC9318811, “PbUGT72AJ2-Mediated Glycosylation Plays an Important Role in Lignin Formation and Stone Cell Development in Pears (Pyrus bretschneideri)” (International Journal of Molecular Sciences, 2022)
